From patent publication US20240368668A1, “SUBSTRATES AND BIOMARKERS OF ADAMTS7” (The Broad Institute, Inc., priority 2021, published 2024)

Target: T1, mouse ADAMTS7 (Mus musculus, UniProt Q68SA9)
T1 construct: Full-length mouse Adamts7 1-1857 (Uniprot Q68SA9, WT or E373Q catalytic mutant); expressed in transfected cells; host or cells: Human Coronary Artery Smooth Muscle Cells (HCA-SMC, Lonza), adenovirus 50 MOI
T1 sequence (Q68SA9 221-1657): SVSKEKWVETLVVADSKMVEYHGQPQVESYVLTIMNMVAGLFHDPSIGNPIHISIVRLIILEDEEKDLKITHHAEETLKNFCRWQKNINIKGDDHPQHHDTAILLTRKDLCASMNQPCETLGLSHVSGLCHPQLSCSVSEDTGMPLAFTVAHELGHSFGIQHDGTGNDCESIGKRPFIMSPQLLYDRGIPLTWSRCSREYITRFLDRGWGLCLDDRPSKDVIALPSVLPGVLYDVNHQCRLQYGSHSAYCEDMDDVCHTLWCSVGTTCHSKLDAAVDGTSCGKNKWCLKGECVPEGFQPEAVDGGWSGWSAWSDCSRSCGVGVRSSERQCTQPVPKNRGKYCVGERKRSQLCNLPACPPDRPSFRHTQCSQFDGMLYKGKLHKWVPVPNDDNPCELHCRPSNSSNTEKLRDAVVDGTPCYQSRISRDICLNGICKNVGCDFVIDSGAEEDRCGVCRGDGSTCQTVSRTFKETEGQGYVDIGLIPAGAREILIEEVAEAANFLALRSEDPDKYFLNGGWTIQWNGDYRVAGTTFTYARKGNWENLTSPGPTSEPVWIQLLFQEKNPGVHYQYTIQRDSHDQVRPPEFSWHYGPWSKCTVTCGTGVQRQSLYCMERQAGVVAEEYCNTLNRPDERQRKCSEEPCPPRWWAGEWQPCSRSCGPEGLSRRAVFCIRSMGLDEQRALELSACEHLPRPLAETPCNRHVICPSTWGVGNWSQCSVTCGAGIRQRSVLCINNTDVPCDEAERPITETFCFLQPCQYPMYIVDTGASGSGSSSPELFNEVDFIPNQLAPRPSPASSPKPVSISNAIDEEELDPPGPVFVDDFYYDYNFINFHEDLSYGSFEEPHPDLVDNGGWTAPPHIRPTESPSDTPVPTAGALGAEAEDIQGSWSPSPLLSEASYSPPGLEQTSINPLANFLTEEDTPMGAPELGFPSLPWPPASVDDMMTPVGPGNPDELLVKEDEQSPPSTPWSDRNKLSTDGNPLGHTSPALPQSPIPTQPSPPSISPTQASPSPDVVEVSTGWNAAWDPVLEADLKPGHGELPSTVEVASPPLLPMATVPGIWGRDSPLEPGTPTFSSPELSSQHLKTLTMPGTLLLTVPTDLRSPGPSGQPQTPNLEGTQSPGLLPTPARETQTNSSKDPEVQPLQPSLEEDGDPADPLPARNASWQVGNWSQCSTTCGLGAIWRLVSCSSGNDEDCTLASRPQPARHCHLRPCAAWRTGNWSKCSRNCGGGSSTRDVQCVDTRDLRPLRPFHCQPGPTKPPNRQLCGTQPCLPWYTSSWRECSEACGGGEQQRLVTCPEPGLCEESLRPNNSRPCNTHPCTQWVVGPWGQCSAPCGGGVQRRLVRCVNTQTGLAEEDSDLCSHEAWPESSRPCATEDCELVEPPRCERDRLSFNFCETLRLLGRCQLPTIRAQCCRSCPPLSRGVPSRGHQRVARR
Assay: TMT10 TAILS N-terminomics, HUVEC experiment (process replicates, trypsin/AspN digest)
Type: cell-based, human
Conditions: HUVEC TAILS HC; log fold change of N-terminal peptide, Ad-mADAMTS7 WT over Luc
Outline: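 Full-length mouse ADAMTS7 (WT or E373Q mutant, C-terminal 3xFLAG) or luciferase was transduced via adenovirus, 50 MOI, into HCA-SMC (SMC1, SMC2) or HUVEC. SMC1: pooled media, technical triplicates 400 ug; SMC2: process triplicates 300 ug; HUVEC: process triplicates 200 ug, bFGF2 10 ng/ml.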

Substance	logFC.mWT.over.Luc
COL18A1_1505 (LQPPVVQLHDSNPYPR; listed as Homo sapiens)	3.05
LTBP2_79 (VAGLQPVER; listed as Homo sapiens)	1.13
LTBP2_250 (SAAGEGTLAR; listed as Homo sapiens)	1.84
LTBP3_208 (FLVPLGPGQISA; listed as Homo sapiens)	1.54
NID1_360 (FHQQHPQVI; listed as Homo sapiens)	1.48
NUCB1_317 (FLASTQR; listed as Homo sapiens)	2.71
SERBP1_56 (QAAAQTNSNAAGKQLR; listed as Homo sapiens)	1.23
SPOCK1_27 (LAGGAGPNHGNFL; listed as Homo sapiens)	0.90
SRGN_59 (LLPGESNKIPR; listed as Homo sapiens)	1.04
THBS2_290 (LSENLKR; listed as Homo sapiens)	5.05

The remaining lines, values ahead:

logFC.mWT.over.Luc	Substance
2.47	LTBP2_502 (LVENSVETRPPPWLPASPGHSLW; listed as Homo sapiens)
2.87	MAP4_815 (AVASTGPSSR; listed as Homo sapiens)
2.13	MAP4_816 (VASTGPSSR; listed as Homo sapiens)
2.80	NID2_291 (HSSVPLGR; listed as Homo sapiens)
1.32	NUCB1_389 (LQQAVLHMEQR; listed as Homo sapiens)
